# Results: patent US20110257102A1 (CASE WESTERN RESERVE UNIVERSITY, published 2011)
# Where “and” joins values, the source holds several entries; their conditions need not be identical. Equal entries are not always repeated.
# B1: GST-tagged FLNa domain 18 (other)
# chain: RVTGDDSMRMSHLKVGSAADIPINISETDLSLLTATVVPPSGREEPCLLKRLRNGHVGISFVPKETGEHLVHVKKNGQHVASSPIPVVI
# notes: domain: domain 18
# B2: GST-tagged FLNa domain 24 (other)
# chain: PGPADASKVVAKGLGLSKAYVGQKSSFTVDCSKAGNNMLLVGVHGPRTPCEEILVKHVGSRLYSVSYLLKDKGEYTLVVKWGDEHIPGSPYRVVVP
# notes: domain: domain 24
# B3: GST-tagged FLNa domain 23 (other)
# chain: GHGGDPGLVSAYGAGLEGGVTGNPAEFVVNTSNAGAGALSVTIDGPSKVKMDCQECPEGYRVTYTPMAPGSYLISIKYGGPYHIGGSPFKAKV
# notes: domain: domain 23
# B4: GST-tagged FLNa domain 20 (other)
# chain: VKVTGEGRVKESITRRRRAPSVANVGSHCDLSLKIPEISIQDMTAQVTSPSGKTHEAEIVEGENHTYCIRFVPAEMGTHTVSVKYKGQHVPGSPFQFTV
# notes: domain: domain 20
# B5: GST-tagged FLNa domain 11 (other)
# chain: EPAVDTSGVQCYGPGIEGQGVFREATTEFSVDARALTQTGGPHVKARVANPSGNLTETYVQDRGDGMYKVEYTPYEEGLHSVDVTYDGSPVPSSPFQVPV
# notes: domain: domain 11
# B6: GST-tagged FLNa domain 17 (other)
# chain: DYVNCGHVTAYGPGLTHGVVNKPATFTVNTKDAGEGGLSLAIEGPSKAEISCTDNQDGTCSVSYLPVLPGDYSILVKYNEQHVPGSPFTA
# notes: domain: domain 17
# B7: GST-tagged FLNa domain 21 (other)
# chain: LGEGGAHKVRAGGPGLERAEAGVPAEFSIWTREAGAGGLAIAVEGPSKAEISFEDRKDGSCGVAYVVQEPGDYEVSVKFNEEHIPDSPFVVPV
# notes: domain: domain 21
# B8: GST-tagged FLNa domain 19 (other)
# chain: SEIGDASRVRVSGQGLHEGHTFEPAEFIIDTRDAGYGGLSLSIEGPSKVDINTEDLEDGTCRVTYCPTEPGNYIINIKFADQHVPGSPFS
# notes: domain: domain 19
# B9: GST-tagged FLNa domain 22 (other)
# chain: SPSGDARRLTVSSLQESGLKVNQPASFAVSLNGAKGAIDAKVHSPSGALEECYVTEIDQDKYAVRFIPRENGVYLIDVKFNGTHIPGSPFKIRV
# notes: domain: domain 22
# B10: GST-tagged FLNa domain 10 (other)
# chain: VPCFDASKVKCSGPGLERATAGEVGQFQVDCSSAGSAELTIEICSEAGLPAEVYIQDHGDGTHTITYIPLCPGAYTVTIKYGGQPVPNFPSKLQV
# notes: domain: domain 10
# Target: filamin A (FLNa) of human tumour cell lines (endogenous) (human) (UniProt P21333)
# Assay: cell-based or functional assay
row,Molecule,inhibition of cellular motility of A7 cells (wound-healing assay)
1,KKRPK-PrP-GPI-PSS synthetic peptide,50% and 60%

# Target: recombinant pro-PrP^23-253 (human, UniProt P04156 23-253)
# Assay: in vitro pull-down with mAb 8H4 and protein G beads, anti-GST immunoblot
row,Molecule,binding result
1,B1,binds
2,B2,no binding
3,B3,binds
4,B4,binds
5,B5,no binding
6,B6,binds
7,B7,binds
8,B8,no binding
9,B9,no binding
10,B10,binds
